Measured values: PMC12780147

Experiments:
[1] = target: TGF-β1 (not stated (human TGF-β1 stated for the reporter assay only)); experiment: BLI
CD127 (IL-7Rα) = CD127 (IL-7Rα) (UniProt P16871); experiment: BLI
Chain of CD127 (IL-7Rα) (P16871 21-459): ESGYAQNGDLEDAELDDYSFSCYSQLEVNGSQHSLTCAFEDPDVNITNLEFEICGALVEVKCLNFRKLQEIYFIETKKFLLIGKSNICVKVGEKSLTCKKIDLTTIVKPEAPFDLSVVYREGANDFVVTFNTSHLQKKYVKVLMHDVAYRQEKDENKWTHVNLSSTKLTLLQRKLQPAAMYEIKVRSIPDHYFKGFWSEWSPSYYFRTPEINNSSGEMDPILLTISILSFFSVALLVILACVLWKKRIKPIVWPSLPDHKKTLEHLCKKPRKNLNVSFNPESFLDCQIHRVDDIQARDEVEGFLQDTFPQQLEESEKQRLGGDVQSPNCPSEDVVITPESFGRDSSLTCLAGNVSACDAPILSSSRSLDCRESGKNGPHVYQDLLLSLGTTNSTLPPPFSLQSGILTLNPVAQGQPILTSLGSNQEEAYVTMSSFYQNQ

rhIL-7-hyFc-sTBRII (IL7-TBRII), bifunctional fusion protein (from UniProt P13232 26-177; P37173 23-166) (Fc fusion)
Kd [1]: 0.145 nM
Kd (CD127 (IL-7Rα)): 6.91 nM
